From PMC3882317 (Cell reports, 2013)

Experiments:
Flag-tagged MePCE = molecular target: T1, Flag-tagged MePCE (UniProt Q7L2J0 1-689); assay: pull-down
T1 sequence (looked up): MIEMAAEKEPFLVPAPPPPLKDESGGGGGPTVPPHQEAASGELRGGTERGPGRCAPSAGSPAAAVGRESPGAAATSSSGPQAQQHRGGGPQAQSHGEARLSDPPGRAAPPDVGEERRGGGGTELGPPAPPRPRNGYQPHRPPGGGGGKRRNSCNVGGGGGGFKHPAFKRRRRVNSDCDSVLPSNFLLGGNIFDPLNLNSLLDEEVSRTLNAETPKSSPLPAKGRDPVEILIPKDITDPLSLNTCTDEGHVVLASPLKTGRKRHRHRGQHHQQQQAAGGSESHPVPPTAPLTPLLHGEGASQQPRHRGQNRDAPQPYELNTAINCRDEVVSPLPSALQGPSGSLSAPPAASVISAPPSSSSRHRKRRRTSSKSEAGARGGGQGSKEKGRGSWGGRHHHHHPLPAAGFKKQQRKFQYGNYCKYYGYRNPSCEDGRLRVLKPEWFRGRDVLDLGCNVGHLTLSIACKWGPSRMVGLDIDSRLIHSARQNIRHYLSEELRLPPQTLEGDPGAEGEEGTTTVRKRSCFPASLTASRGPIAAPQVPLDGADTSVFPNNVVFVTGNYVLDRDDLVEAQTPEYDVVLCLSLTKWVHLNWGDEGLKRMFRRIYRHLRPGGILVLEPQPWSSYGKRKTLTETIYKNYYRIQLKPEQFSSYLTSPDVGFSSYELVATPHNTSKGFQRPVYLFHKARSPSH

Flag-tagged Larp7 = molecular target: T2, Flag-tagged Larp7 (UniProt Q4G0J3 1-582); assay: pull-down
T2 sequence (looked up): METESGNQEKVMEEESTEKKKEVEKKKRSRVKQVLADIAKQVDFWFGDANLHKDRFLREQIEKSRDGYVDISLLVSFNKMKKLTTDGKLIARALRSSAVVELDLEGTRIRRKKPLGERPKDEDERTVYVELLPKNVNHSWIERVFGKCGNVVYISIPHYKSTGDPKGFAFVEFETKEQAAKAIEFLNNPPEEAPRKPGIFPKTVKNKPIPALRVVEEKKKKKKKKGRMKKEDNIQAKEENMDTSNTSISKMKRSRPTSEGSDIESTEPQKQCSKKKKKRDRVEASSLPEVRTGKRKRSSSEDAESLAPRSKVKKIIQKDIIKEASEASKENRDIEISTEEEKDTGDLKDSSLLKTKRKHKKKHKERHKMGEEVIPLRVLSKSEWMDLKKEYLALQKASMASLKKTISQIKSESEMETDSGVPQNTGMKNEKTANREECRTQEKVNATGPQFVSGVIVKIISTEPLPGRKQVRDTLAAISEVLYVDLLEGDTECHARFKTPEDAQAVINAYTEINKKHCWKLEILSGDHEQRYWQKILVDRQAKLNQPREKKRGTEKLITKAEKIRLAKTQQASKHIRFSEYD

B1: Strep-tagged PPM1G (enzyme, UniProt O15355 1-546, looked up)
chain: MGAYLSQPNTVKCSGDGVGAPRLPLPYGFSAMQGWRVSMEDAHNCIPELDSETAMFSVYDGHGGEEVALYCAKYLPDIIKDQKAYKEGKLQKALEDAFLAIDAKLTTEEVIKELAQIAGRPTEDEDEKEKVADEDDVDNEEAALLHEEATMTIEELLTRYGQNCHKGPPHSKSGGGTGEEPGSQGLNGEAGPEDSTRETPSQENGPTAKAYTGFSSNSERGTEAGQVGEPGIPTGEAGPSCSSASDKLPRVAKSKFFEDSEDESDEAEEEEEDSEECSEEEDGYSSEEAENEEDEDDTEEAEEDDEEEEEEMMVPGMEGKEEPGSDSGTTAVVALIRGKQLIVANAGDSRCVVSEAGKALDMSYDHKPEDEVELARIKNAGGKVTMDGRVNGGLNLSRAIGDHFYKRNKNLPPEEQMISALPDIKVLTLTDDHEFMVIACDGIWNVMSSQEVVDFIQSKISQRDENGELRLLSSIVEELLDQCLAPDTSGDGTGCDNMTCIIICFKPRNTAELQPESGKRKLEEVLSTEGAEENGNSDKKKKAKRD
- binding result (Flag-tagged MePCE): binds
- binding result (Flag-tagged Larp7): binds
